Source: patent US20160114017A1 (UNIVERSITY OF PITTSBURGH OF THE COMMONWEALTH SYSTEM OF …, published 2016)
Each block holds one binder with its values, some of them ahead of it.

Molecular target: T1, HLA-A2 on the cell surface (HLA-A2 transfected T2 cell line; SNB19 glioma cells) (human)
T1 construct: whole, on cells; Class I MHC on cells; also called HLA-A*0201
Experiment: T2 cell HLA-A2 stabilisation, flow cytometry, peptide 1 nM overnight
Protocol: The binding capability of these modified peptides was assessed using an HLA-A2 transfected T2 cell line. Aliquots of T2 cells were incubated with modified peptides or IL-13Rα2₃₄₅₋₃₅₃ at 1 nM overnight, and then examined for the surface expression levels of HLA-A2 on T2 cells by flow cytometry. Since stable binding of HLA-A2 with peptide epitopes further stabilizes the surface expression of HLA-A2 (Francini et al., 2002; Alves et al., 2003), quantitative expression levels of HLA-A2, which is indicated by Mean Fluorescence Intensity (MFI) in Table 1, correlate with the binding affinity of the peptide-epitopes that are co-incubated with the T2 cells.

Binding Index (MFI): 237 MFI
B1: Native IL-13Rα2345-353 peptide (peptide)
peptide: WLPFGFILI
notes: Synthetic peptide incubated with T2 cells at 1 nM overnight; also called IL-13Rα345-353; wild type IL-13Rα2345-353

Binding Index (MFI): 376 MFI
B2: IL-13Rα2-V9 peptide (I replaced with V at P9) (peptide)
peptide: WLPFGFILV
notes: Synthetic modified peptide; also called IL-13Rα2345-9V
